Laboratory results as given in the supplement of paper PMC12455559.
± gives the standard deviation of the averaged measurements.

Assays:
[1] = PET hydrolysis, aromatic products released after 48 h (umol product/mg enzyme); higher = more PET depolymerization activity
Summary of the method: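 Candidate enzymes, made tagless by SUMO cleavage and purified on nickel beads, were added at 5 μg (50 μL) to 3.5 mg of either amorphous PET film or crystalline PET powder in 450 μL buffer. The sealed plates stood unshaken for 48 h at 40 or 60 °C. Activity on PET is the aromatic product found in the supernatant per mg enzyme, read at 260 and 280 nm against buffer blanks.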

[2] = purified protein yield per well (BCA); higher = higher soluble expression
Summary of the method: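 Candidate enzymes were made in 2 mL autoinduction cultures of E. coli C41(DE3) with 100 µg/mL kanamycin, at 37 °C for 2 h and then 18 °C for 40 h, and purified with Ni-charged magnetic beads and SUMO protease cleavage. The Pierce Rapid Gold BCA kit gave purified protein yield per well. Values lower than 25 ug (0.1 mg/mL) are below the detection threshold.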

[3] = melting temperature (DSF); higher = more thermostable
Summary of the method: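 Enzymes made in E. coli C41(DE3) were nickel-bead purified and cut free with SUMO protease before testing. Differential scanning fluorimetry gave each melting temperature. For this, 5 μL 5X Sypro Orange was added to 45 μL enzyme (0 to 0.3 mg/mL) in sealed PCR plates, and a Bio-Rad CFX96 read fluorescence from 25 °C over 250 cycles of 0.3 °C each, ramping at 0.3 °C/s.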

[4] = substrate: cryPow, 40 °C, pH 4.5
[5] = substrate: cryPow, 40 °C, pH 5.5
[6] = substrate: cryPow, 40 °C, pH 6.5
[7] = substrate: cryPow, 40 °C, pH 7.5
[8] = substrate: aFilm, 40 °C, pH 5.5
[9] = substrate: aFilm, 40 °C, pH 6.5
[10] = substrate: aFilm, 40 °C, pH 7.5
[11] = substrate: aFilm, 40 °C, pH 8.5
[12] = substrate: aFilm, 60 °C, pH 5.5
[13] = substrate: aFilm, 60 °C, pH 6.5
[14] = substrate: aFilm, 60 °C, pH 7.5
[15] = substrate: aFilm, 60 °C, pH 8.5
[16] = substrate: cryPow, 40 °C, pH 8.5
[17] = substrate: cryPow, 60 °C, pH 5.5
[18] = substrate: cryPow, 60 °C, pH 6.5
[19] = substrate: cryPow, 60 °C, pH 7.5
[20] = substrate: cryPow, 60 °C, pH 8.5
[21] = substrate: aFilm, 40 °C, pH 4.5
[22] = substrate: aFilm, 60 °C, pH 4.5
[23] = substrate: cryPow, 60 °C, pH 4.5

Sequence | PET hydrolysis [1, 4] | PET hydrolysis [1, 5] | PET hydrolysis [1, 6] | PET hydrolysis [1, 7] | purified protein yield per well [2] [µg] | melting temperature [3] [C] | PET hydrolysis [1, 8] | PET hydrolysis [1, 9] | PET hydrolysis [1, 10] | PET hydrolysis [1, 11] | PET hydrolysis [1, 12] | PET hydrolysis [1, 13] | PET hydrolysis [1, 14] | PET hydrolysis [1, 15] | PET hydrolysis [1, 16] | PET hydrolysis [1, 17] | PET hydrolysis [1, 18] | PET hydrolysis [1, 19] | PET hydrolysis [1, 20] | PET hydrolysis [1, 21] | PET hydrolysis [1, 22] | PET hydrolysis [1, 23]
FSAPGPSAPCSNCTRGPAPTVASLKASSGPFSTAKFSVSGYLKGFGNSTVYYPTNTSGKMGAIAVIPGYLSYESSIEWWGPRLASHGFVVMTMNTNSIYDQPDSRATQLSKALDYLISQSGSSSSPIYGKVDSSRLGAIGWSMGGGGSLKLSTQRSINAIIPQAPWYLGSNTFNTIKTPALILACSADTVAPVYQHASPFYNRIPTSTPKAFLEIYGGSHFCANSGYPNEDLLGMYGIAWMKRFIDFDSRYSQFLCGPNHESDYAISEYRQNCPY [ESM017] | < 3 | < 3 | 11 | 33 | 53.8 | 56.5 |  |  |  |  |  |  |  |  |  |  |  |  |  |  |  | 
GETAQTTDVSAQSQFQRGPNPTVSSIEARTGHYRTSTTRVSSFASGFGGGTIYYPTTTSDGTFGGVAVAPGYTASSSTMDWLGPRIASQGFVVFVIDTNTRLDQPSSRGRQLLAALDYLTERSSERHRVDSNRLAVMGHSMGGGGALEATISRPSLKASIPLTPWNLTKNWSRVTTPTLIVGAENDSVASVRSHSIPFYTSLSSSTDRMYVELDGASHFAPNVSNTTIAKYSISWLKRFVDDDTRYDQFLCPLPNERAISDIRGNCPR [DP090] |  | < 3 | 7 | 12.5 ± 9.2 | 423 | 51.4 | < 3 | 5 ± 7.1 | 12 ± 7.1 | 22 ± 17 | < 3 | < 3 | < 3 | < 3 | 25.5 ± 0.71 | < 3 | < 3 | 2 ± 2.8 | 2 ± 2.8 |  |  | 
GQAAVPVAVAGTSAFAKGPDPTEQSIQAQRGPFATAQRTVPSEAGRAFNRGTVHYPTDTSHGTYGAVVVSPGFFGPEFSVAWYGSTLASHGFVVLTLETNFLFDQPDARATQLLAGLDWLAARSPVKDRVDPNRLAVMGHSMGGGGTLIAASRNPALKAAIPLTPWNTSPDFSTVTVPTLVLGTDNDTVAPVARHADPMYASLRDKPDEGYVKLRGDHFTPIRYTAAATRFIVPWLKRYVDEDTRYSRFLCPLPAPDATLVSFELRCPV [DP040] |  | < 3 | 3 | < 3 | 28 | 40.3 |  |  |  |  |  |  |  |  | < 3 |  |  |  |  |  |  | 
GQAPTTAAQVRASAFAKGPDPTEQTIKAQRGPFQIKQLSVAAQSGRGFNRGTIYYPTDTGQGTYGAIAVIPGFLEPEFITSWYGPTLASYGFVVMTLEPFAITDFPDPRSNQLLAAVDWLAADSPVKAQVDPNRLAVMGHSMGGGGALLAASKRPSLKAAVPLAPWNLYADFAGVTVPTLVIGADNDFIAPVGMHADPMYASIKASPNEGYLKLKNADHFTVNSYSATLTKFTVSWMKRYVDEDTRYTQFLCPAPQPDPSFASFQMTCPS [TEP173] | < 3 | < 3 | < 3 | < 3 | 293 | 41.2 | < 3 | < 3 | < 3 |  | < 3 | < 3 | < 3 |  |  | < 3 | < 3 | < 3 |  | < 3 | < 3 | < 3
GRVMAASDSGTAADERVYAEPSVDPASVGSAGRNPYERGPEPTLASVAAEYGPFDTDQLTVPPGHGFNGGYIYYPTDTSQTFGAVAIVPGYTALFADEEAWMGPRLASFGFVVIGIETNSRDDWDIARGEQLLAALDYLVHHSPVRARIDANRLAVVGHSMGGGGALFAATQRPSLKAVVALAPYFPSGSLAAIRVPTMIIGGQDDTVVTPSYLDDLYASRPAHTPGAYLMLADADHLFATRPNTVEMRLLIPWLKIFVDHDTRYTQFLCPVADRSGIARHHVT [TEP126] | < 3 | < 3 | < 3 | < 3 | 166 | 55.9 |  |  |  |  |  |  |  |  |  | < 3 | < 3 | < 3 |  |  |  | < 3
GSLAHIVMVDAYKPTKGSGASQTNPYARGPNPTAASLEASAGPFTVRSFTVSRPSGYGAGTVYYPTNAGGTVGAIAIVPGYTARQSSIKWWGPRLASHGFVVITIDTNSTFDYPSSRSSQQMAALRQVASLNGDSSSPIYGKVDTARMGVMGHSMGGGASLRSAANNPSLKAAIPQAPWDSQTNFSSVTVPTLIFACENDSIAPVNSHALPIYDSMSRNAKQFLEINGGSHSCANSGNSNQALIGKKGVAWMKRFMDNDTRYSTFACENPNSTAVSDFRTANCSLEGSGGSGAHIVMVDAYKPTK [TEP004] | 4 | 33 | 62 | 69 | 77.2 | 73.9 |  |  |  |  |  |  |  |  |  | 14 | 76 | 82 |  |  |  | < 3
GTTASATTVSGTQAAAAQEYRRGPDPTAQSVEAATGPFAIQQTSVPAGNGFGGGTIYYPTDTSQGTFGAIAISPGWTEDQSAIAWLGPKLASNGFVVMTINNNNAFLDFPDARGTQLLAALDSLTGQSPVAGRIDKNRLAVAGHSMGGGGALRAAATRPEIQAAIPLTPWHLNQDWSSVRVPTLIVGGETDIIASVGAHSEPFYESLTNAPERAYLEMEGQGHFVTNSANPTVGRYVLSWLKRYVDNDTRYEQFLCPAPAPSSVISEYRDSCPGS [DP018] |  | < 3 | < 3 | < 3 | 84 | 66.1 |  |  |  |  |  |  |  |  | < 3 | < 3 | < 3 | < 3 | < 3 |  |  | 
LFDNNGNKKQAYDATLSALNAGGTPVSPSPSVSPTAGPSPSTSPSPSPPPGDNPYQRGPDPTRDSVAANRGTFATAEMSVSPGNGFNGGSIYYPTDTSQGTFGAVAIVPGYTARFADEEAWMGHWLASFGFVVIGVETNSTNDFDTARGTQLLAALDWLTQSSPVRDRIDASRQSVIGHSMGGGGALHAAGNRSSLKAAVGLTPFMPSGTPANNQVPTLMIAGTNDTVVAPSYVTDLYNALPSSTERAYMEFVGADHLFPTRPNNLEMRILIPWLKTFVDSDSRYTQFLCPLMDSSGIAGYRNSCPLLPDQPTPPPTPTPSPTTPTPDPTTPGPGTCTATMSTGQVWGDRYNTSVTVTGTSNWTVVVAITPPQRISATWNGNPTWDSSGNVMTIRANGNGNVFGFTTMFNGNSWARPQIRSCTAG [DP081] |  | 7.5 ± 0.71 | 21 ± 2.8 | 14.5 ± 0.71 | 244 | 57.1 | < 3 | < 3 | < 3 | < 3 | < 3 | < 3 | < 3 | < 3 | 12.5 ± 2.1 | < 3 | < 3 | < 3 | < 3 |  |  | 
LNPYQRGPNPTDAILEASSGPYATSSISVPSIVSGFGGGRIYYPTTTADGTFGGIAISPGFTATWSSLSWLGPRLASHGFVVIGIETNTIYDQPTSRGQQLLAALDYLVNTSSVRTRVDSSRLAVAGHSMGGGGTLWAANSRPSLQAAIPLAPWNTDKSWSGVRVPTLIVGGQSDTVAPVATHSIPFYTSIPAASEKAYLELRSASHFFPQTVNTTVAVSMVSWLKRYVDDDTRYDPWLCPGPSGLSVSDYRDTCPA [TEP178] | < 3 | 6 | 21 | 29 | 64.5 | 52 |  |  |  |  |  |  |  |  |  | < 3 | 3 | 4 |  |  |  | < 3
LTPSPTPPPTGGTGGCPADAICRGETPGSYSANGPYGSRSYTLSRIQTPGGATVYYPANAEPPFSGLVFTPPYTGSQFMYRAWGPFFASHGIVMVTMDTRTTLDSVDQRAAQQKQVLDALKAENTRSASPLRGKLDTSRLGAVGWSMGGGATWINSAEYSGLKTAMSLAGHNLSALDINARGSNTRVPTLIMNGALDATYLGGLGQSLGVYNNIPRGIPKVIYEVSSAGHFSWGSPTSAGRSVAQIALAFQKTFLDGDTRWATYIRRPSSGVATWRTANLP [ESM175] | < 3 | < 3 | < 3 | < 3 | 285 | 46 | < 3 | < 3 | < 3 |  | < 3 | < 3 | < 3 |  |  | < 3 | < 3 | < 3 |  | < 3 | < 3 | < 3
MAAANPYQRGPDPTLASVAATNGPFATAQMTVPPGNGFNGGYIYYPTDTSLGTWGAVAIVPGYTALFKNEEAWMGPRLASFGFVVIGIETNSRTDFDTARGTQLLAALDYLTQKSAVRNRVDPGRLGVIGHSMGGGGALVAATQRPSLKAAVGLAPFKPSGNLANDRVPTMFIAGNRDTVVTPSYLDGLYGSLPAATKKAYVQINGADHLFATKPNTVEMRTLIPWLKIFLDNDTRYSQFLCPTLLDKTGVSMYRGTCPLI [TEP109] | 28.5 ± 0.71 | 43 ± 1.4 | 67 ± 7.1 | 65.5 ± 3.5 | 285 | 61.6 | 12.5 ± 2.1 | 10.5 ± 2.1 | < 3 |  | 2 ± 2.8 | < 3 | < 3 |  |  | 47 ± 1.4 | 23 ± 4.2 | 5.5 ± 0.71 |  | 7 ± 1.4 | < 3 | 12.5 ± 2.1
MAADNPYQRGPNPTSASVAASRGTFATAELSVPRGNGFGGGKIYYPTDTTQGTFGAIAIVPGYTATWAAEGAWMGHWLASFGFVVIGIDTNSRNDNDTARGTQLLAALDYLTQRSSVRGRVDAKRLAVMGHSMGGGGALVAARQRPSLKAAVGLAPFKPSGPPSADRVPTMVIAGQRDGTVTPSYVDGLYRAIPAGTEKAYLEFAGAGHAFPTRPNPLQMRLVIPWLKSFTDHDTRYHQFLCPLKDRTGVTAYRSTCPLVAPGARD [TEP041] | < 3 | < 3 | 3 | < 3 | 427 | 54.4 | < 3 | < 3 | < 3 |  | < 3 | < 3 | < 3 |  |  | < 3 | < 3 | < 3 |  | < 3 | < 3 | < 3
MAAGPAAVAADNPYQRGPDPTPASVAAPNGPFATAQVSVPPGYGFNGGMIYYPTDTSQGTFGAIAISPGYTALFSVELAWMGPRLASQGFVVIGIETNDRNDFDTARGTQLLAALDYLTGQSSVRSRVDPNRLAVAGHSMGGGGAFSAALRRPALKAAVGFTPFSPSQNLTNMQVPALLYSGQYDTVTTPSSVSNLYNGLPSTTEGAYIEAAGLDHSFPTRPNTLLMRTMIPWVKIFLDNDLRYTQFLCPLMDSSGVLQYRNTCPLVPPGLPSPSPTTAPPTTAPPTTAPPPTTAPPPTTAPPPTTAPPPTTNPPAGACSVSYTTNQWPGGFTRDVRITNTGGSVSSWTLAFTAGSNVSLSNGWNGDWSQSGSQITVRNAAWNGSLASGATVSIGFQGTFSGSTLPPLSNITLNGAACAS [DP068] |  | 3 | 21 | 36 | 60 | 63.4 |  |  |  |  |  |  |  |  | 52 | < 3 | 7 | 17 | 20 |  |  | 
